Assay results from paper PMC3478187, “PEGylation, increasing specific activity and multiple dosing as strategies to improve the risk-benefit profile of targeted radionuclide therapy with ^177Lu-DOTA-bombesin analogues” (EJNMMI Research, 2012).
Read-outs that look alike come from different tables or passages of the source.

How the values were obtained:
[1] = Octanol/PBS partition coefficient (log D); format: physicochemical; settings: shake-flask 1-octanol/PBS (1:1), pH 7.4, 30 kBq, vortex 1 min, centrifuged, gamma counter, sextuplicate, mean ± SD
Protocol: Material & Methods: The octanol/PBS partition coefficients were determined at pH 7.4. Five μl containing 30 kBq of the radiolabelled compounds in phosphate buffered saline (PBS) were added to a vial which contained 1.2 ml of 1-octanol and PBS (1:1). After vortexing for 1 min, the vial was centrifuged (5 min, 10 000 rpm) to ensure complete separation of layers. Then, 40 μl of each layer were taken in a preweighed vial and measured in a gamma counter (Packard Canberra Cobra II, Meriden, USA). Counts per weight unit of sample were calculated and log D values were determined as described by Pillarsetty et al. using the formula log10D=log10 (counts in 1 g of octanol/counts in 1 g of PBS). The experiments were performed in sextuplicate.

[2] = Metabolic stability in human plasma; format: in vitro ADME; settings: 37 °C
Protocol: The labelled analogues were incubated with human plasma (final concentration, 10 MBq/0.6 ml) at 37 °C for various time intervals up to 12 days. After incubation, proteins were precipitated with acetonitrile/ethanol (1:1) and TFA (0.1%) and then centrifuged. The supernatant was analysed with RP-high-performance liquid chromatography (HPLC) equipped with a radioactivity detector. […] The experiments were performed two times.

[3] = Biodistribution in nude mice bearing PC-3 tumour xenografts; settings: female, CD-1 nu/nu, mouse, in vivo, iv, total radioactivity; for tissue uptake at 1 h / tissue uptake at 24 h: 0.3 MBq/0.075 nmol i.v., mean ± SD
Protocol: All animal experiments were conducted in compliance with the Swiss animal protection laws and with the ethical principles and guidelines for scientific animal experimentation established by the Swiss Academy of Natural Sciences. Biodistribution studies were performed with 6- to 8-week-old female CD-1 nu/nu mice (20 to 25 g) purchased from Charles River Laboratories (Sulzfeld, Germany). For the induction of tumour xenografts, each mouse received subcutaneously 8 × 10^6 PC-3 cells in 150 μl culture medium without supplements. The tumours were allowed to grow for at least 3 weeks. On the day of the experiment, the mice (3 to 6 per group) received the radioactive conjugates intravenously. […] Receptor-blocking studies were performed using 100 μg of unlabelled BN(1–14) co-injected with the corresponding radiolabelled BN analogue. At 1, 4 and 24 h post injection (p.i.), the animals were euthanised and dissected. Blood, tumours and various healthy tissues and organs were collected, weighed and examined for radioactivity. Results are expressed as percentage of injected dose per gram of tissue (% ID/g).

CCCC[C@H](NC(=O)[C@H](CC1CCCCC1)NC(=O)[C@H](Cc1c[nH]cn1)NC(=O)CNC(=O)[C@@H](NC(=O)[C@H](C)NC(=O)[C@H](Cc1c[nH]c2ccccc12)NC(=O)[C@H](CCC(N)=O)NC(=O)CCNC(=O)CCNC(=O)CC(CCCCN)NC(=O)CN1CCN(CC(=O)O)CCN(CC(=O)O)CCN(CC(=O)O)CC1)C(C)C)C(N)=O (stereo partly drawn) [^177Lu-DOTA-Lys-BN, metal not drawn]
logD [1]: -2.18 ± 0.07 | remaining at 120 h, 10 MBq/0.6 ml ([2]; 10 MBq/0.6 ml, 5 days, precipitation acetonitrile/ethanol (1:1) + 0.1% TFA, RP-HPLC radioactivity detector, performed two times, mean ± SD, read-out: remained intact after 5 days): 13.8 ± 5.7% | half-life at 10 MBq/0.6 ml ([2]; 10 MBq/0.6 ml, up to 12 days, RP-HPLC radioactivity detector, performed two times, mean ± SD): 28.8 h | half-life (t1/2) in human plasma ([2]; in vitro, as printed in hours in the discussion): 28.8 h | tissue uptake at 1 h ([3]; 1 h p.i. blocked, 100 μg unlabelled BN(1–14) co-injected, n = 3 to 4, read-out: Colon uptake, blocked): 0.36 ± 0.07 %ID/g | tissue uptake at 1 h ([3]; 1 h p.i. blocked, 100 μg unlabelled BN(1–14) co-injected, n = 3 to 4, read-out: Pancreas uptake, blocked): 0.49 ± 0.22 %ID/g | tissue uptake at 1 h ([3]; 1 h p.i. blocked, 100 μg unlabelled BN(1–14) co-injected, n = 3 to 4, read-out: Tumour uptake, blocked): 0.55 ± 0.03 %ID/g | tissue uptake at 1 h ([3]; 1 h p.i., n = 3 to 4, read-out: Blood uptake): 0.24 ± 0.07 %ID/g | tissue uptake at 1 h ([3]; 1 h p.i., n = 3 to 4, read-out: Bone uptake): 0.36 ± 0.24 %ID/g | tissue uptake at 1 h ([3]; 1 h p.i., n = 3 to 4, read-out: Colon uptake): 1.64 ± 0.4 %ID/g | tissue uptake at 1 h ([3]; 1 h p.i., n = 3 to 4, read-out: Heart uptake): 0.14 ± 0.06 %ID/g | tissue uptake at 1 h ([3]; 1 h p.i., n = 3 to 4, read-out: Kidneys uptake): 2.86 ± 0.63 %ID/g | tissue uptake at 1 h ([3]; 1 h p.i., n = 3 to 4, read-out: Liver uptake): 0.26 ± 0.09 %ID/g | tissue uptake at 1 h ([3]; 1 h p.i., n = 3 to 4, read-out: Lung uptake): 0.36 ± 0.08 %ID/g | tissue uptake at 1 h ([3]; 1 h p.i., n = 3 to 4, read-out: Muscle uptake): 0.2 ± 0.24 %ID/g | tissue uptake at 1 h ([3]; 1 h p.i., n = 3 to 4, read-out: Pancreas uptake): 8.68 ± 1.95 %ID/g | tissue uptake at 1 h ([3]; 1 h p.i., n = 3 to 4, read-out: Small intestine uptake): 1.38 ± 0.41 %ID/g | tissue uptake at 1 h ([3]; 1 h p.i., n = 3 to 4, read-out: Spleen uptake): 0.42 ± 0.12 %ID/g | tissue uptake at 1 h ([3]; 1 h p.i., n = 3 to 4, read-out: Stomach uptake): 0.72 ± 0.19 %ID/g | tissue uptake at 1 h ([3]; 1 h p.i., n = 3 to 4, read-out: Tumour uptake): 1.88 ± 0.47 %ID/g | tissue to tissue ratio at 24 h ([3]; 24 h p.i., 0.075 nmol, read-out: tumour-to-liver ratio): 5.9 | tissue uptake at 24 h ([3]; 24 h p.i., n = 3 to 4, read-out: Bone uptake): 0.02 ± 0.01 %ID/g | tissue uptake at 24 h ([3]; 24 h p.i., n = 3 to 4, read-out: Colon uptake): 0.36 ± 0.09 %ID/g | tissue uptake at 24 h ([3]; 24 h p.i., n = 3 to 4, read-out: Heart uptake): 0.01 ± 0.01 %ID/g | tissue uptake at 24 h ([3]; 24 h p.i., n = 3 to 4, read-out: Kidneys uptake): 1.41 ± 0.14 %ID/g | tissue uptake at 24 h ([3]; 24 h p.i., n = 3 to 4, read-out: Liver uptake): 0.09 ± 0.02 %ID/g | tissue uptake at 24 h ([3]; 24 h p.i., n = 3 to 4, read-out: Lung uptake): 0.02 ± 0.01 %ID/g | tissue uptake at 24 h ([3]; 24 h p.i., n = 3 to 4, read-out: Muscle uptake): 0.01 %ID/g | tissue uptake at 24 h ([3]; 24 h p.i., n = 3 to 4, read-out: Pancreas uptake): 4.27 ± 0.85 %ID/g | tissue uptake at 24 h ([3]; 24 h p.i., n = 3 to 4, read-out: Small intestine uptake): 0.16 ± 0.03 %ID/g | tissue uptake at 24 h ([3]; 24 h p.i., n = 3 to 4, read-out: Spleen uptake): 0.18 ± 0.04 %ID/g | tissue uptake at 24 h ([3]; 24 h p.i., n = 3 to 4, read-out: Stomach uptake): 0.1 ± 0.02 %ID/g | tissue uptake at 24 h ([3]; 24 h p.i., n = 3 to 4, read-out: Tumour uptake): 0.54 ± 0.3 %ID/g
